Biological target: LEDGF/ΔIBD-B56γ chimera (LEDGF residues 1-324 and B56γ residues 11-380), wild type, O75475;Q13362
Assay: pull-down
Settings: parent: est. 100; read off a plot

Substance	percent of parent (% of wild type)
His6-STLV-1 IN (6xHis-tagged STLV-1 MarB43 IN), wild type E218A	5
His6-STLV-1 IN (6xHis-tagged STLV-1 MarB43 IN), wild type H209A	23
His6-STLV-1 IN (6xHis-tagged STLV-1 MarB43 IN), wild type H209A; P211A	21
His6-STLV-1 IN (6xHis-tagged STLV-1 MarB43 IN), wild type I216A	1
His6-STLV-1 IN (6xHis-tagged STLV-1 MarB43 IN), wild type P214A	57
His6-STLV-1 IN (6xHis-tagged STLV-1 MarB43 IN), wild type P215A; P217A	15

Biological target: His6-STLV-1 IN (6xHis-tagged STLV-1 MarB43 IN), wild type
Assay: pull-down
Settings: parent: est. 100; read off a plot

Substance	percent of parent (% of wild type)
LEDGF/ΔIBD-B56γ chimera (LEDGF residues 1-324 and B56γ residues 11-380), wild type (from UniProt O75475;Q13362) E78A; T81A; H82A	150
LEDGF/ΔIBD-B56γ chimera (LEDGF residues 1-324 and B56γ residues 11-380), wild type (from UniProt O75475;Q13362) R84A	140
LEDGF/ΔIBD-B56γ chimera (LEDGF residues 1-324 and B56γ residues 11-380), wild type (from UniProt O75475;Q13362) R143A	46

Source: paper PMC7542444
